Data from patent US20120114652A1 (AbbVie / Abbott, published 2012).
Where a chain is given by its changes, count along the chain named.

T1: rabbit PAI-1 (rabbit)
T1 chain: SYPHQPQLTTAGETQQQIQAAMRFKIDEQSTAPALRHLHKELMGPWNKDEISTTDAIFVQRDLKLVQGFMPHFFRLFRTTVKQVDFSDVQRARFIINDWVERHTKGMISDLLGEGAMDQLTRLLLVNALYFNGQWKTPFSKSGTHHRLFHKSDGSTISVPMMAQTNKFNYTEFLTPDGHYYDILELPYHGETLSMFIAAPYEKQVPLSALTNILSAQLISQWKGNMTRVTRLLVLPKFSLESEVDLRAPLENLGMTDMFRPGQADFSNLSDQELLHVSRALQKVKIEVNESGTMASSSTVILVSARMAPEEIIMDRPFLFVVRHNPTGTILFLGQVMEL

B1: mouse PAI-1 (other)
chain: ALPLRESHTAHQATDFGVKVFQQVVQASKDRNVVFSPYGVSSVLAMLQMTTAGKTRRQIQDAMGFKVNEKGTAHALRQLSKELMGPWNKNEISTADAIFVQRDLELVQGFMPHFFKLFQTMVKQVDFSEVERARFIINDWVERHTKGMINDLLAKGAVDELTRLVLVNALYFSGQWKTPFLEASTHQRLFHKSDGSTVSVPMMAQSNKFNYTEFTTPDGLEYDVVELPYQGDTLSMFIAAPFEKDVHLSALTNILDAELIRQWKGNMTRLPRLLILPKFSLETEVDLRGPLEKLGMPDMFSATLADFTSLSDQEQLSVAQALQKVRIEVNESGTVASSSTAFVISARMAPTEMVIDRSFLFVVRHNPTETILFMGQVMES
notes: bought (US Biological); also called murine PAI-1
B2: rat PAI-1 (other)
chain: SPLPESHTAQQATNFGVKVFQHVVQASKDRNVVFSPYGVSSVLAMLQLTTAGKTRQQIQDAMGFNISERGTAPALRKLSKELMGSWNKNEISTADAIFVQRDLELVQGFMPHFFKLFRTTVKQVDFSEVERARFIINDWVERHTKGMISDLLAKGAVNELTRLVLVNALYFNGQWKTPFLEASTHQRLFHKSDGSTISVPMMAQNNKFNYTEFTTPDGHEYDILELPYHGETLSMFIAAPFEKDVPLSAITNILDAELIRQWKSNMTRLPRLLILPKFSLETEVDLRGPLEKLGMTDIFSSTQADFTSLSDQEQLSVAQALQKVKIEVNESGTVASSSTAILVSARMAPTEMVLDRSFLFVVRHNPTETILFMGQLMEP
notes: bought (US Biological)
B3: Antibody 01, IgG1, not germlined (antibody, V domains shown)
VH: QVQLVQSGAEVKKPGSSVKVSCKASGGTFSSYAISWVRQAPGQGLEWMGGIIPIFGTANYAQKFQGRVTITADESTSTAYMELSSLRSEDTAVYYCAREKRQWLEGHFDYWGRGTLVTVSS
VL: DIQMTQSPSTLSASVGDRVTITCRASEGIYRSLAWYQQKPGKAPKLLIYKASSLASGVPSRFSGSGSGTEFTLTISSLQPDDFATYYCQQYSNYPLTFGGGTKVEIK
B4: Antibody 27, scFv (scFv, V domains shown)
VH: B3 VH with V5Q, T28A, I54T, S85G, L116P
VL: B3 VL with T10F, V15I, R31H, S32N, K50R, V58A, E70D, V104L
B5: Antibody 18, scFv (scFv, V domains shown)
VH: B3 VH with V5Q, I54T, F64L, S85G, L116P
VL: B3 VL with T10F, V15I, R31H, S32A, K50R, V58A, E70D, V104L
B6: Antibody 16, scFv (scFv, V domains shown)
VH: B3 VH with I54T
VL: B3 VL with G28S, R31H, G66R
B7: Antibody 02, IgG4, not germlined (antibody, V domains shown)
VH: B3 VH with I54T
VL: B3 VL with R31H, N93D
notes: whole IgG4; also called Ab 02
B8: Antibody 02, IgG1, not germlined (antibody, V domains shown)
VH: B3 VH with I54T
VL: B3 VL with R31H, N93D
B9: Antibody 01, IgG4, not germlined (antibody, V domains shown)
VH: B3 VH
VL: B3 VL
notes: whole IgG4; also called Ab 01
B10: Antibody 09, scFv (scFv, V domains shown)
VH: B3 VH with V5Q, I54A, G56D, S85G, L116P
VL: B3 VL with T10F, V15I, R24Q, R31H, S32N, K50R, V58A, E70D, V104L
B11: Antibody 15, scFv (scFv, V domains shown)
VH: B3 VH with V5Q, I54T, S85G, L116P
VL: B3 VL with T5A, T10F, V15I, R31H, S32N, K50R, V58A, E70D, V104L, K107R
B12: Antibody 20, scFv (scFv, V domains shown)
VH: B3 VH with V5Q, I54T
VL: B3 VL with R31H, S32E, K50R, G66R, N93D
B13: Antibody 27, IgG1, not germlined (antibody, V domains shown)
VH: B3 VH with V5Q, T28A, I54T, S85G, L116P
VL: B3 VL with T10F, V15I, R31H, S32N, K50R, V58A, E70D, V104L
notes: whole IgG1; also called Ab 27

Legend:
[1] = molecular target: PICK167_A01 IgG1; test: competition ELISA (DELFIA): PICK167_A01 IgG1 coated on the plate, binding of biotinylated human PAI-1 detected with streptavidin-Eu3+ in the presence of a titration of the unlabelled test antigen (the varied molecule)
[2] = molecular target: T2, PICK167_A01-fgl IgG1 (CAT-1001); test: competition ELISA (DELFIA): PICK167_A01-fgl IgG1 (CAT-1001) coated on the plate, binding of biotinylated human PAI-1 detected with streptavidin-Eu3+ in the presence of a titration of the unlabelled test antigen (the varied molecule)
T2 construct: fully germlined variant, made as an IgG1 only; also called PICK67A01-fgl

[3] = molecular target: T3, human PAI-1, active, wild-type, non-glycosylated (E. coli-derived) (human, UniProt P05121 24-402); test: cell-based or functional assay
[4] = molecular target: T4, cynomolgus PAI-1 (cynomolgus, UniProt P05121 24-402 (human entry), limits assumed); test: cell-based or functional assay
[5] = molecular target: B2; test: cell-based or functional assay
[6] = molecular target: B1; test: cell-based or functional assay
[7] = molecular target: glycosylated active human PAI-1 produced by CHO cells (human, UniProt P05121 24-402, N-glycosylated (CHO-produced)); test: cell-based or functional assay
[8] = molecular target: T3, human PAI-1, active, wild-type, …; test: cell-based or functional assay; remark: listed apart in the source
[9] = molecular target: B1; test: cell-based or functional assay; remark: listed apart in the source
[10] = molecular target: B2; test: cell-based or functional assay; remark: listed apart in the source
[11] = molecular target: B2; test: cell-based or functional assay; remark: listed apart in the source
[12] = molecular target: T3, human PAI-1, active, wild-type, …; test: cell-based or functional assay; remark: listed apart in the source
[13] = molecular target: T4, cynomolgus PAI-1; test: cell-based or functional assay; remark: listed apart in the source
[14] = molecular target: T1, rabbit PAI-1; test: competition ELISA (DELFIA), IgG coated, competitor titrated against biotinylated active human PAI-1
[15] = molecular target: T5, latent human PAI-1 (human, UniProt P05121 24-402); test: as above
T5 construct: also called latent PAI-1

[16] = molecular target: B2; test: as above
[17] = molecular target: B1; test: as above

Binder: B1
- IC50 (read off the curve) [1]: ~4 nM
- IC50 (read off the curve) [2]: ~2 nM

Binder: B2
- IC50 (read off the curve) [1]: ~2 nM
- IC50 (read off the curve) [2]: ~1 nM

Binder: B3
- IC50 chromogenic [3]: 1.5 nM
- IC50 chromogenic [4]: 0.7 nM
- IC50 ratio cyno/human [4]: 0.4
- IC50 chromogenic [5]: 99.3 nM
- IC50 ratio rat/human [5]: 66.2
- IC50 chromogenic [6]: 30 nM
- IC50 ratio mouse/human [6]: 20
- IC50 chromogenic, hu glyco [7]: 1.7 nM
- IC50 HT-1080 Exo PAI-1 [8]: 11.2 nM
- IC50 HT-1080 Exo PAI-1 [9]: 15.8 nM

Binder: B4
- IC50 chromogenic [4]: 2.2 nM
- IC50 chromogenic [5]: 49.8 nM
- IC50 HT-1080 Exo PAI-1 [8]: 18.8 nM
- IC50 HT-1080 Exo PAI-1 [10]: 33.8 nM
- IC50 HT-1080 Exo PAI-1 [9]: 16.4 nM

Binder: B5
- fold higher IC50 in the rat chromogenic assay, against the human assay [11]: ~180 fold
- IC50 chromogenic [3]: 1.3 nM
- IC50 chromogenic [4]: 0.5 nM
- IC50 ratio cyno/human [4]: 0.4
- IC50 chromogenic [5]: 238 nM
- IC50 ratio rat/human [5]: 190
- IC50 chromogenic [6]: 319 nM
- IC50 ratio mouse/human [6]: 255
- IC50 HT-1080 Exo PAI-1 [10]: 37 nM

Binder: B6
- IC50 chromogenic (FIG. 2a) [12]: 3.6 nM
- IC50 chromogenic (FIG. 2b) [13]: 0.8 nM
- IC50 chromogenic [5]: 5.6 nM
- IC50 chromogenic [6]: 4.3 nM
- IC50 HT-1080 Exo PAI-1 [8]: 16.9 nM
- IC50 HT-1080 Exo PAI-1 [10]: 52.6 nM
- IC50 HT-1080 Exo PAI-1 [9]: 17.6 nM

Binder: B7
- IC50 ratio rabbit/wt [14]: 4.8

Binder: B8
- IC50 chromogenic [3]: 1.6 nM
- IC50 chromogenic [5]: 510 nM
- IC50 ratio rat/human [5]: 317
- IC50 chromogenic [6]: 167 nM
- IC50 ratio mouse/human [6]: 104
- IC50 chromogenic, hu glyco [7]: 1.5 nM
- IC50 HT-1080 Exo PAI-1 [8]: 8.7 nM
- IC50 HT-1080 Exo PAI-1 [9]: 10.9 nM

Binder: B9
- IC50 ratio rabbit/wt [14]: 9

Binder: B10
- IC50 chromogenic [4]: 0.7 nM
- IC50 chromogenic [5]: 29.7 nM
- IC50 HT-1080 Exo PAI-1 [8]: 23 nM
- IC50 HT-1080 Exo PAI-1 [10]: 52.7 nM
- IC50 HT-1080 Exo PAI-1 [9]: 21 nM

Binder: B11
- IC50 chromogenic [3]: 7.2 nM
- IC50 chromogenic [4]: 2.2 nM
- IC50 ratio cyno/human [4]: 0.3
- IC50 chromogenic [5]: 64.2 nM
- IC50 ratio rat/human [5]: 8.9
- IC50 chromogenic [6]: 66.9 nM
- IC50 ratio mouse/human [6]: 9.3
- IC50 HT-1080 Exo PAI-1 [8]: 36 nM
- IC50 HT-1080 Exo PAI-1 [10]: 57 nM
- IC50 HT-1080 Exo PAI-1 [9]: 37 nM

Binder: B12
- IC50 chromogenic [4]: 1.3 nM
- IC50 chromogenic [6]: 4.9 nM
- IC50 HT-1080 Exo PAI-1 [8]: 19.1 nM
- IC50 HT-1080 Exo PAI-1 [10]: 42.4 nM
- IC50 HT-1080 Exo PAI-1 [9]: 18.1 nM

Binder: B13
- IC50 chromogenic [3]: 4.9 nM
- IC50 chromogenic [5]: 26.5 nM
- IC50 ratio rat/human [5]: 5.4
- IC50 chromogenic [6]: 16.1 nM
- IC50 ratio mouse/human [6]: 3.3
- IC50 chromogenic, hu glyco [7]: 2.6 nM
- IC50 HT-1080 Exo PAI-1 [8]: 10.9 nM
- IC50 HT-1080 Exo PAI-1 [10]: 16.1 nM
- IC50 HT-1080 Exo PAI-1 [9]: 7.8 nM
- IC50 ratio rabbit/wt [14]: 85
- IC50 ratio latent/wt [15]: 6.8
- IC50 ratio rat/wt [16]: 1.2
- IC50 ratio mouse/wt [17]: 6.1
